B1: M0202-E06 (Fab, V domains shown)
VH: EVQLLESGGGLVQPGGSLRLSCAASGFTFSHYIMMWVRQAPGKGLEWVSGIYSSGGITVYADSVKGRFTISRDNSKNTLYLQMNSLRAEDTAVYYCAYRRRGVPRRDDFDIWGQGTMVTVSS
VL: DIQMTQSPSTLSASVGDRVTITCRASQSISSWLAWYQQKPGKAPNLLIYKASTLESGVPSRFSGSGSGTEFTLTISSLQPDDFATYYCQQYNTYWTFGQGTKVEIK
B2: M0202-009 (Fab, V domains shown)
VH: EVQLLESGGGLVQPGGSLRLSCAASGFTFSHYIMMWVRQAPGKGLEWVSGIYSSGGITVYADSVKGRFTISRDNSKNTLYLQMNSLRAEDTAVYYCAYRRIGVPRRDDFDIWGQGTMVTVSS
VL: DIQMTQSPSTLSASVGDRVTITCRASQSISSWLAWYQQKPGKAPNLLIYKASTLESGVPSRFSGSGSGTEFTLTISSLQPDDFATYYCQQYNTYWTFGQGTKVEIK
B3: M0201-F11 (Fab, V domains shown)
VH: EVQLLESGGGLVQPGGSLRLSCAASGFTFSHYIMMWVRQAPGKGLEWVSGIYSSGGITVYADSVKGRFTISRDNSKNTLYLQMNSLRAEDTAVYYCAYRRSGIPRRDAFDIWGQGTMVTVSS
VL: DIQMTQSPSTLSASVGDRVTITCRASQSISSWLAWYQQKPGKAPNLLIYKASTLESGVPSRFSGSGSGTEFTLTISSLQPDDFATYYCQQYNTYWTFGQGTKVEIK
B4: M0199-All (Fab, V domains shown)
VH: EVQLLESGGGLVQPGGSLRLSCAASGFTFSHYIMMWVRQAPGKGLEWVSGIYSSGGITVYADSVKGRFTISRDNSKNTLYLQMNSLRAEDTAVYYCAYRRRGIPRRDAFDIWGQGTMVTVSS
VL: DIQMTQSPSTLSASVGDRVTITCRASQSISSWLAWYQQKPGKAPNLLIYKASTLESGVPSRFSGSGSGTEFTLTISSLQPDDFATYYCQQYNTYWTFGQGTKVEIK
B5: M0202-A08 (Fab, V domains shown)
VH: EVQLLESGGGLVQPGGSLRLSCAASGFTFSHYIMMWVRQAPGKGLEWVSGIYSSGGITVYADSVKGRFTISRDNSKNTLYLQMNSLRAEDTAVYYCAYRRTGIPRWDAFDIWGQGTMVTVSS
VL: DIQMTQSPSTLSASVGDRVTITCRASQSISSWLAWYQQKPGKAPNLLIYKASTLESGVPSRFSGSGSGTEFTLTISSLQPDDFATYYCQQYNTYWTFGQGTKVEIK
B6: M0202-D09 (Fab, V domains shown)
VH: EVQLLESGGGLVQPGGSLRLSCAASGFTFSHYIMMWVRQAPGKGLEWVSGIYSSGGITVYADSVKGRFTISRDNSKNTLYLQMNSLRAEDTAVYYCAYRRIGVPRRDSFDIWGQGTMVTVSS
VL: DIQMTQSPSTLSASVGDRVTITCRASQSISSWLAWYQQKPGKAPNLLIYKASTLESGVPSRFSGSGSGTEFTLTISSLQPDDFATYYCQQYNTYWTFGQGTKVEIK
B7: X135-A01 (Fab, V domains shown)
VH: EVQLLESGGGLVQPGGSLRLSCAASGFTFSHYIMMWVRQAPGKGLEWVSGIYSSGGITVYADSVKGRFTISRDNSKNTLYLQMNSLRAEDTAVYYCAYRRTGAPRRDAFDIWGQGTMVTVSS
VL: DIQMTQSPSTLSASVGDRVTITCRASQSISSWLAWYQQKPGKAPNLLIYKASTLESGVPSRFSGSGSGTEFTLTISSLQPDDFATYYCQQYNTYWTFGQGTKVEIK
B8: M0200-D03 (Fab, V domains shown)
VH: EVQLLESGGGLVQPGGSLRLSCAASGFTFSHYIMMWVRQAPGKGLEWVSGIYSSGGITVYADSVKGRFTISRDNSKNTLYLQMNSLRAEDTAVYYCAYRRIGVPRRDSFDMWGQGTMVTVSS
VL: DIQMTQSPSTLSASVGDRVTITCRASQSISSWLAWYQQKPGKAPNLLIYKASTLESGVPSRFSGSGSGTEFTLTISSLQPDDFATYYCQQYNTYWTFGQGTKVEIK

The source of these data is patent US20150274841A1 (DYAX, published 2015).

The target in the test is T1, human plasma kallikrein (PKal) (human, UniProt P03952 20-638).
T1 construct: Active PKal is cleaved at the marked R/I site into two disulfide-linked chains; also called human Pkal; active PKal
T1 sequence (P03952 20-638 limits assumed): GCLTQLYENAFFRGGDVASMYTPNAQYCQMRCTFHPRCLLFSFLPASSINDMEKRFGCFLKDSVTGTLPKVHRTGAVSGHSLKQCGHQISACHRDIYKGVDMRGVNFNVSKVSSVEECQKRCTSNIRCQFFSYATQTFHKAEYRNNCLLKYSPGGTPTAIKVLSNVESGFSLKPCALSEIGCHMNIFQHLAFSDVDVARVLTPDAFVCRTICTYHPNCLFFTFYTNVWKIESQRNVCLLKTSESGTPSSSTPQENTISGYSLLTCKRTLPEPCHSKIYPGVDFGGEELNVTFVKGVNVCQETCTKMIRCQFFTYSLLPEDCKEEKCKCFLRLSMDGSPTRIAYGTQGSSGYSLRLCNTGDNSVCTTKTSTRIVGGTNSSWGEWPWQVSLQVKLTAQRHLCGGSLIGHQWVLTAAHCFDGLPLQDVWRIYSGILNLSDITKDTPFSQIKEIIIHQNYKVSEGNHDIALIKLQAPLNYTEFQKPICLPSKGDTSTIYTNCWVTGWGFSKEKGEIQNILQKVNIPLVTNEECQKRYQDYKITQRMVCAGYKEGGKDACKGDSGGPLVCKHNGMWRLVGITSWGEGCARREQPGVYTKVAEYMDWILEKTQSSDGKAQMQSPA
The experiment in a line: Ki,app; Fab inhibition of PKal cleavage of a substrate peptide, Morrison fit. As to the method: Briefly, PKal and a Fab at various concentrations are incubated together for 1 hour at 30° C. A substrate peptide (cleavable by PKal) is then added to this PKal-Fab mixture. The rate of substrate peptide cleavage/proteolysis is then measured, and plotted against the concentrations of the Fab. This plot is then fit to the Morrison equation, which calculates the K_{i,app} value. The results thus obtained are shown in FIGS. 5A-5D and Table 3 below: […]
For B1, the Ki stood at 0.06 nM.
In turn, B2 yielded a Ki of 0.06 nM.
With B3 the figure was 3 nM; with B4, 2 nM.
With B5 the figure was 2.8 nM; with B6, 0.2 nM; with B7, 248 nM.
B8 yielded a Ki of 0.1 nM.
